This series is described as follows: protein stability index of a GFP-peptide fusion (GPS, HEK-293T) (PSI 1-6); higher = more stable.
[1] abbreviates: treatment: DMSO, c terminus: a fixed tail appended.
The mark [2] stands for this setting: treatment: MLN4924 1 uM, 8 h, c terminus: a fixed tail appended.
The mark [3] stands for this setting: treatment: DMSO, c terminus: native.
Setting [4] is: treatment: MLN4924 1 uM, 8 h, c terminus: native.

In the supplement of paper PMC10567573 one finds protein stability index data, which are given here for 72 sequences.

± gives the standard deviation.
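Also: 24-mer peptide tiles fused after GFP, lentivirally expressed, FACS-sorted into six equal bins by GFP/DsRed ratio, decoded by Illumina sequencing, PSI is the read-weighted mean bin number.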

As to DSQDLVASFRVTTGTSNTTAIKSI [RBBP5], the protein stability index by setting is: under setting [1], 3.46 ± 0.24; under setting [2], 3.59 ± 0.26.

Turning to DSQRVASVSLDRCIKIWDVTSQAT [WDR88], the protein stability index is, setting by setting: under setting [1], 3.1 ± 0.22; under setting [2], 3.12 ± 0.17.

As for DSSHDSARASEGSDSGSDKSLEGG [SMG5], the protein stability index is, setting by setting: under setting [1], 5.54 ± 0.31; under setting [2], 5.51 ± 0.31.

Regarding DTINRSVLDFDFEKLCSISLSHIN [USP39], the protein stability index by setting is: under setting [1], 2.6 ± 0.32; under setting [2], 2.79 ± 0.24.

As to DTISTIKSVAWEGGACPAFLPSLR [NCF4], the protein stability index turned out to be 2.92 ± 0.3 under setting [1] and 2.9 ± 0.38 under setting [2].

Consider DTTRVENLIKSENYGKILVEKNEH [R3HDM1], for which the protein stability index is, setting by setting: under setting [1], 4.46 ± 0.089; under setting [2], 4.4 ± 0.1.

Consider DVEVPASVTGYSFASDGDSGTCSP [ADD1], for which the protein stability index stood at 5.16 ± 0.19 under setting [1] and 5.29 ± 0.11 under setting [2].

For DVIQALDLSVPLMDVGETAMVTAD [FKBP8], the protein stability index is, setting by setting: under setting [1], 3.41 ± 0.29; under setting [2], 3.53 ± 0.19.

DVTCNEFFFDRNPGAFGTILTFLR [KCNG1]: the protein stability index is, setting by setting: under setting [1], 2.59 ± 0.33; under setting [2], 2.65 ± 0.12.

With DYKLLKPSLAVNLADPYRSLKAPG [JUNB], the protein stability index reads like this: under setting [1], 3.41 ± 0.35; under setting [2], 3.35 ± 0.14.

Turning to DYSASEYRWHINFTTFFIDCMAAL [SCD], the protein stability index is, setting by setting: under setting [1], 2.54 ± 0.17; under setting [2], 2.63 ± 0.47.

Turning to DYWLRRFEAEPLPENTNRQLLLQF [PI4K2A], the protein stability index came out at 2.41 ± 0.21 under setting [1] and 2.35 ± 0.27 under setting [2].

As to EAARLEYDAYRTDLEELSLGPRDA [ARFIP2], the protein stability index runs as follows: under setting [1], 4.78 ± 0.15; under setting [2], 4.86 ± 0.15.

Turning to EACGRCEEVPEAYVDIHTGLSGSG [PYCR3], the protein stability index worked out at 4.29 ± 0.67 under setting [1] and 4.57 ± 0.11 under setting [2].

In turn, EAETPPNGPDCGYGSFHQQYWLDG [ATE1] gave a protein stability index under setting [1] of 3.89 ± 0.31 and a protein stability index under setting [2] of 4.15 ± 0.11.

As to EAFQIVLSHLLGDAGSPYLIGLIS [SPNS1], the protein stability index was 3.11 ± 0.37 under setting [1] and 2.98 ± 0.41 under setting [2].

For the sequence EALSVPLSLCVSSHLALPAQHHWE [CLPTM1], the protein stability index amounted to 2.15 ± 0.27 under setting [1] and 2.2 ± 0.29 under setting [2].

Consider EDIALNKHRSRRKWCFWNSSPAVA [RHOBTB1], for which the protein stability index by setting is: under setting [1], 2.31 ± 0.22; under setting [2], 2.28 ± 0.23.

On to EDLMPLAAAYGHALEQYEGESWRE [P3H4], for which the protein stability index was 4.59 ± 0.53 under setting [1] and 4.86 ± 0.17 under setting [2].

Take EDPSFWDCFCFTEEIPIRNGTKS [AASDHPPT]: the protein stability index is 3.92 ± 0.12 under setting [3] and 4.22 ± 0.22 under setting [4].

On to EDQAEAWGCSCCPPETKHQALSGT [TSPAN10], for which the protein stability index came out at 4.71 ± 0.31 under setting [1] and 4.67 ± 0.18 under setting [2].

Consider EEEEEEEAAGVVVEEELFHQQGTP [LMNB1], for which the protein stability index reads like this: under setting [1], 5.38 ± 0.31; under setting [2], 5.47 ± 0.41.

With EEEVVEGEKEVEALKKSADWVSDW [BNIP3L], the protein stability index came to 5.08 ± 0.25 under setting [1] and 5.36 ± 0.34 under setting [2].

For EEFIATIRAAKGLDQALKEGGKLP [ZC2HC1A], the protein stability index reads like this: under setting [1], 3.98 ± 0.22; under setting [2], 3.93 ± 0.16.

Take EEQVILTEKDLLEDGFGEHPFYHC [SAT1]: the protein stability index runs as follows: under setting [1], 3.95 ± 0.24; under setting [2], 4.15 ± 0.42.

Turning to EERAKAKHLARQLEEKDRVLKKQD [CHCHD3], the protein stability index runs as follows: under setting [1], 5.51 ± 0.14; under setting [2], 5.42 ± 0.16.

EERQAAQNECQVLKLLNHPNVIEY [NEK8] yielded a protein stability index under setting [1] of 4.01 ± 0.16 and a protein stability index under setting [2] of 4.29 ± 0.11.

In the case of EEWGQLDPTQRILYRDVMLETFGH [ZNF8], the protein stability index reads like this: under setting [1], 2.91 ± 0.32; under setting [2], 3.22 ± 0.38.

EFPESRKPISTKSQFLKHQQTHNI [ZNF649] gave a protein stability index under setting [1] of 3.72 ± 0.47 and a protein stability index under setting [2] of 3.57 ± 0.5.

As to EFSLVNVNLQRFGMNGQMLCNLGK [ETS2], the protein stability index came to 2.32 ± 0.4 under setting [1] and 2.58 ± 0.16 under setting [2].

On to EGAIAVHCKAGLGRTGTLIACYVM [CDC14A], for which the protein stability index stood at 3.02 ± 0.56 under setting [1] and 2.86 ± 0.51 under setting [2].

With EGGKLPPPPPPSYDPDYIQCPYCQ [ZC2HC1A], the protein stability index is, setting by setting: under setting [1], 4.03 ± 0.3; under setting [2], 4.45 ± 0.27.

Regarding EGNHPSARKLTAQRRASTVSSVTQ [NET1], the protein stability index stood at 4.39 ± 0.25 under setting [1] and 4.69 ± 0.18 under setting [2].

In the case of EGSREHAFQITGVWDASRAPRGTP [PLEKHN1], the protein stability index was determined as 4.34 ± 0.27 under setting [1] and 4.39 ± 0.26 under setting [2].

EGSVACLWWDPIQRLLFSGASDNS [WDFY1]: the protein stability index is, setting by setting: under setting [1], 2.36 ± 0.32; under setting [2], 2.43 ± 0.1.

For the sequence EHDAWFIFFMAAFAFSNGYLASLC [SLC29A1], the protein stability index amounted to 3.19 ± 0.5 under setting [1] and 3.25 ± 0.48 under setting [2].

Regarding EHSWIKAIRRRNVRGEDSGRKPER [DAPK3], the protein stability index under setting [1] amounted to 3.62 ± 1.7 and the protein stability index under setting [2] turned out to be 4.07 ± 0.23.

Consider EINKRTAAENEFVLLKKDVDAAYA [KRT71], for which the protein stability index was determined as 3.76 ± 0.26 under setting [1] and 4.24 ± 0.24 under setting [2].

Regarding EIPKQVKVKKLKNLKTLDSKPGVY [DENND6A], the protein stability index by setting is: under setting [1], 3.4 ± 0.34; under setting [2], 3.31 ± 0.52.

EKEQEKMRQDLEEERVALNTEIEK [PKD2L1]: the protein stability index turned out to be 5.45 ± 0.27 under setting [1] and 5.64 ± 0.15 under setting [2].

The sequence EKHCEFKQLALDHFKKTKKMGGKD [ATL3] showed a protein stability index under setting [1] of 4.64 ± 0.14 and a protein stability index under setting [2] of 4.57 ± 0.39.

In turn, EKLKVAPPNADLEQGFQEGVPNAS [MFF] came in with a protein stability index under setting [1] of 5.28 ± 0.17 and a protein stability index under setting [2] of 5.22 ± 0.17.

Regarding EKTQKNQCWKSLFIDTYSDVGRYI [FBXO3], the protein stability index runs as follows: under setting [1], 2.53 ± 0.73; under setting [2], 2.15 ± 0.33.

With ELCHHVAEVWVSGTIFIRNVLLFK [RETREG3], the protein stability index stood at 3.09 ± 0.67 under setting [1] and 2.81 ± 0.61 under setting [2].

On to ELETVDFKDKLEETKGQINNSIKD [SERPINB5], for which the protein stability index is, setting by setting: under setting [1], 5.29 ± 0.46; under setting [2], 5.51 ± 0.12.

Regarding ELFAWGRGDSGRLGLGTRESHSCP [NEK8], the protein stability index came to 2.95 ± 0.26 under setting [1] and 3.27 ± 0.22 under setting [2].

On to ELLTLVNRKVSQRRVDFCKDPSAI [CASP6], for which the protein stability index runs as follows: under setting [1], 2.22 ± 0.36; under setting [2], 2.24 ± 0.14.

For the sequence ELPSALESHEVPGTLSMGVPQIFK [ZNF24], the protein stability index under setting [1] was 4.07 ± 0.12 and the protein stability index under setting [2] is 4.11 ± 0.13.

ELRRNHCFQDFKEEKPQENKTWRE [ELOA2]: the protein stability index under setting [1] was determined as 3.31 ± 0.31 and the protein stability index under setting [2] was 3.47 ± 0.41.

As for EMAEQLMTLAYDNGINLFDTAEVY [KCNAB2], the protein stability index runs as follows: under setting [1], 2.3 ± 0.44; under setting [2], 2.44 ± 0.29.

In turn, EMREQYEAMAEKNRRDVEAWFFSK [KRT15] had a protein stability index under setting [1] of 3.85 ± 0.13 and a protein stability index under setting [2] of 3.88 ± 0.39.

In the case of EMSIHLSRPNGTSAMLLVTLGKVL [MED27], the protein stability index by setting is: under setting [1], 2.41 ± 0.46; under setting [2], 2.2 ± 0.26.

For the sequence EMWADQLTSLKDLYKSLKTLSAEL [CEP70], the protein stability index by setting is: under setting [1], 2.3 ± 0.18; under setting [2], 2.1 ± 0.25.

ENQRENLEQPFLSVFKKGRRRVPV [PLEKHN1]: the protein stability index is, setting by setting: under setting [1], 3.31 ± 0.4; under setting [2], 3.46 ± 0.18.

Take EPAGSLRELGVWRSLLRLRATRAG [C2CD2L]: the protein stability index turned out to be 2.88 ± 0.29 under setting [1] and 3.06 ± 0.46 under setting [2].

As for EPHGKMFNEQTWEVSQQDPSHGEV [ZSCAN9], the protein stability index runs as follows: under setting [1], 5.06 ± 0.16; under setting [2], 5.04 ± 0.18.

For the sequence EPVAAGSGIPEVKCYLNGVKVPGI [CLCN6], the protein stability index runs as follows: under setting [1], 3.19 ± 0.61; under setting [2], 3.59 ± 0.34.

As for EPVLLFGKIRRGAYALPAGLSAPA [TRIB3], the protein stability index came out at 2.76 ± 0.19 under setting [1] and 3.01 ± 0.26 under setting [2].

Turning to ERKQALYEYARRRFTERRAQEAD [AUP1], the protein stability index was 4.22 ± 0.15 under setting [3] and 4.25 ± 0.29 under setting [4].

Regarding ERLKQEIERLTREVEATRRALIDR [DDIT3], the protein stability index runs as follows: under setting [1], 3.6 ± 0.24; under setting [2], 3.56 ± 0.29.

In the case of ERRPRRVEAERPHSLIGVIRETVL [FAM189A2], the protein stability index under setting [1] turned out to be 3.64 ± 0.32 and the protein stability index under setting [2] is 3.91 ± 0.41.

As to ERRRGPAAGEQLQQQHVSCQVFPE [ATP23], the protein stability index came to 4.6 ± 0.21 under setting [1] and 4.72 ± 0.36 under setting [2].

With ERTSPGAIHYCASTSEESWTDSEV [SPDEF], the protein stability index amounted to 5.25 ± 0.058 under setting [1] and 4.97 ± 0.18 under setting [2].

For the sequence ESDSCQKCEQPFFWNIKQMWDTKT [WDFY1], the protein stability index is, setting by setting: under setting [1], 3.25 ± 0.089; under setting [2], 3.19 ± 0.24.

For the sequence ESDTDGAGGNSSSSAAMQSSCSST [CCDC6], the protein stability index came to 5.58 ± 0.2 under setting [1] and 5.69 ± 0.3 under setting [2].

As for ESGASIEDHNENGHTPLMEAGSAG [ANKRD17], the protein stability index reads like this: under setting [1], 5.47 ± 0.25; under setting [2], 5.35 ± 0.28.

ESLEDVAMYISQEEWGHQDPSKRA [ZNF263]: the protein stability index was 4.99 ± 0.069 under setting [1] and 5.03 ± 0.26 under setting [2].

For ESLKVIGRGAFGEVRLVQKKDTGH [STK38L], the protein stability index under setting [1] was found to be 4.69 ± 0.17 and the protein stability index under setting [2] is 4.63 ± 0.19.

Take ESSTRLLLEKNASVNEVDFEGRTP [RIPK4]: the protein stability index under setting [1] was 4.83 ± 0.79.

ESVTHHDYRMELAQAGTPAPTKPH [SPAG8] showed a protein stability index under setting [1] of 4.95 ± 0.26 and a protein stability index under setting [2] of 4.99 ± 0.12.

ETRAEDPPWFEGLESRFQSKSGYL [DFFB] showed a protein stability index under setting [1] of 3.56 ± 0.063 and a protein stability index under setting [2] of 3.63 ± 0.069.

EVDPTGHSFVLVTSLGLTYDGMLS [MAGEA10]: the protein stability index is, setting by setting: under setting [1], 2.51 ± 0.47; under setting [2], 2.52 ± 0.51.
